Molecular target: Affinity peptide KRTGQYKL immobilised in PEG hydrogel
Experiment: absorption of bFGF into peptide-functionalized hydrogels

Substance: Recombinant human bFGF (from UniProt P09038 143-288) (ligand)
- bFGF absorbed in gel at 4.4 µM monovalent peptide: 27.3 ng/mg-gel

Reference: paper PMC2818180
